Assays:
human OX40 on cells [1] = biological target: T1, human OX40 on cells (human, UniProt P43489 29-277); assay: FACS competition on hOX40-293 cells against biotin-OX40.5 (spike biotOX.5 @ 1.0 ug/mL, streptavidin-APC); partial inhibition, FL4-MFI falls from about 29000 to about 17000; the table gives no unit, axis in nM
T1 construct: also called hOX40-293 cells; hOX40-HT1080
T1 sequence: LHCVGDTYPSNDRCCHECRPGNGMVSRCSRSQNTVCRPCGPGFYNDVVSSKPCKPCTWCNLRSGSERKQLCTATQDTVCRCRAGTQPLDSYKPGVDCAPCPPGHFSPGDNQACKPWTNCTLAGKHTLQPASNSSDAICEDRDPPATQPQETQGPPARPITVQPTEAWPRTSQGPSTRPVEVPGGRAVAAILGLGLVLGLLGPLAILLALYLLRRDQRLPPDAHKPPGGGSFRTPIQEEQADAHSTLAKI

cynomolgus OX40 on cells [2] = biological target: T2, cynomolgus OX40 on cells (cynomolgus, UniProt P43489 29-277 (human entry)); assay: FACS, activated cyno CD4 T cells
T2 construct: also called cynoOX40-CHO
T2 chain: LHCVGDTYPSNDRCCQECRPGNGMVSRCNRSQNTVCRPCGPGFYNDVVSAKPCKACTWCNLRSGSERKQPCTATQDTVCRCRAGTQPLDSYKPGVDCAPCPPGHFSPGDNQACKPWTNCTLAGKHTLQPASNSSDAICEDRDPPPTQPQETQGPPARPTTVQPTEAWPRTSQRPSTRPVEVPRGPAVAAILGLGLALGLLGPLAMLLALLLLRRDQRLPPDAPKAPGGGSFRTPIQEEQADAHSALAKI
Protocol: (§1) Briefly, cells were activated for several days before the binding assay in order to induce OX40 expression. Total leukocytes were isolated from cynomolgus macaque peripheral blood by lysis of red blood cells using an ammonium chloride buffer. The leukocytes were then cultured for four to five days with in flasks pre-coated with anti-human CD3 plus anti-human CD28 antibodies that cross-react with cynomolgus macaque, in the presence of recombinant human IL-2, in order to expand and activate T cells. On the day of the assay, the cells were harvested and stained with a titration of each anti-OX40 antibody. Bound antibodies were detected with a fluorescently conjugated anti-human IgG polyclonal secondary antibody, and the cells were co-stained for CD4 and CD25 to detect activated CD4 T cells. The fluorescence intensity of the staining was measured using a FACSCanto II flow cytometer (Becton Dickinson). The geometric mean fluorescence intensity (GMFI) or median fluorescence intensity (MedFI) of anti-OX40 antibody staining was calculated for the CD4+CD25+ population (FACSDiva software). Dose-response curves were generated and EC50s for antibody binding were calculated using GraphPad Prism software.
The same experiment was performed with anti-OX40 antibodies with variable region substitutions.

human OX40 on cells [3] = biological target: T1, human OX40 on cells; assay: cell-based or functional assay
cynomolgus OX40 on cells [4] = biological target: T2, cynomolgus OX40 on cells; assay: FACS, activated cyno T cells; mean ± SD, n=5
Protocol: as §1

human OX40 on cells [5] = biological target: T1, human OX40 on cells; assay: FACS, activated human T cells; mean ± SD, n=7
human OX40 on cells [6] = biological target: T1, human OX40 on cells; assay: cell-based or functional assay; remark: listed apart in the source
[7] = biological target: T3, his-tagged soluble human OX40 (huOX40-6xhis) (human, UniProt P43489 29-214); assay: SPR, mAb captured on anti-human CH1, OX40-6XHIS analyte, 1:1 fit
T3 construct: made in-house; also called Human-OX40-6XHIS; hOX40; not shown: hexahistidine tag
T3 sequence: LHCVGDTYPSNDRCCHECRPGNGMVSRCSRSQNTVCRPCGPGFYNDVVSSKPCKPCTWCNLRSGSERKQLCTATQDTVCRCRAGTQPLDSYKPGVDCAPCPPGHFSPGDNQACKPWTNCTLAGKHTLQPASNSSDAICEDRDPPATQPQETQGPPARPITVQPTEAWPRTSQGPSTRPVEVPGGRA
Protocol: The affinity of several OX40 antibodies for soluble human OX40 was tested by SPR analysis. […] Human-OX40-6XHIS antigen in either a single concentration of 400 nM or a 1:2 serial dilution from 400 nM was used. Experiments were carried out on BIACORE® T200 or BIACORE® 3000 SPR instruments. Data was fit to a 1:1 model.

human OX40 on cells [8] = biological target: T1, human OX40 on cells; assay: FACS, activated human T cells; mean ± SD, n=2
Protocol: Cells were activated for several days before the binding assay in order to induce OX40 expression. Briefly, PBMCs were cultured for three or four days with magnetic beads coated with anti-human CD3 plus anti-human CD28, in the presence of recombinant human IL-2. On the day of the assay, the beads were removed and the cells stained with a titration of each anti-OX40 antibody. Bound antibodies were detected with a fluorescently conjugated anti-human IgG polyclonal secondary antibody, and the cells were co-stained for CD4 and CD25 to detect activated CD4 T cells. The fluorescence intensity of the staining was measured using a FACSCanto II flow cytometer (Becton Dickinson). The geometric mean fluorescence intensity (GMFI) or median fluorescence intensity (MedFI) of anti-OX40 antibody staining was calculated for the CD4+CD25+ population (FACSDiva software). EC₅₀s for antibody binding were calculated using GraphPad Prism software.

cynomolgus OX40 on cells [9] = biological target: T2, cynomolgus OX40 on cells; assay: FACS, activated cyno T cells; n=1
Protocol: as §1

human OX40 on cells [10] = biological target: T1, human OX40 on cells; assay: FACS, blocking of OX40L-His (0.2 µg/mL) binding to hOX40-293 cells
Protocol: Briefly, 293 cells stably transfected with human OX40 were first pre-incubated with varying concentrations of anti-OX40 antibodies. […] The fluorescence intensity of the staining was measured using a FACSCanto II flow cytometer (Becton Dickinson).

human OX40 on cells [11] = biological target: T1, human OX40 on cells; assay: FACS competition on HT1080-hOX40 cells against APC-OX40.1 (FL2 MFI); the table gives no unit, axis 'Ab conc nM'
Protocol: This experiment was performed to test the cross-blocking properties of various anti-OX40 antibodies to assess binding specificities. […] Cells were washed and if necessary further incubated in the presence of streptavidin-APC conjugate under the same conditions. After the final wash, cells were analyzed on a FACSCanto flow cytometer (BD Bioscience, San Jose, Calif.). Mean fluorescence intensity (MFI) signal was proportional to bound conjugated antibody.

B1: OX40.6 (antibody, human IgG1, kappa, V domains shown)
VH: EVQLVQSGGGLVQPGGSLRLSCAGSGFTFSNYAMYWVRQAPGKGLEWVSAIGIGGDTFYTDSVKGRFTISRDNAKNSLSLQMNSLRAEDTAVYYCARMGTGYFFDYWGQGTLVTVSS
VL: EIVLTQSPATLSLSPGERATLSCRASQSVSSYLAWYQQKPGQAPRLLIYDASNRATGIPARFSGSGSGTDFTLTISSLEPEDFAVYYCQQRSNWPLTFGPGTKVDIKR
Human OX40 on cells [1]
  EC50: 0.857 nM
Cynomolgus OX40 on cells [2]
  EC50: ≤ 0.12 nM
Human OX40 on cells [3]
  IFNγ EC50, CD4 T cells + CHO-CD3-CD32A: 0.033 nM
  Proliferation EC50, CD4 T cells + CHO-CD3-CD32A: 0.032 nM
Cynomolgus OX40 on cells [4]
  EC50: 0.11 nM
Human OX40 on cells [5]
  EC50: 0.13 nM
Human OX40 on cells [6]
  IL-2 EC50, SEB PBMC, donor BMS-001: 0.49 nM
  IL-2 EC50, SEB PBMC, donor BMS-004: 0.48 nM
  IL-2 EC50, SEB PBMC, donor BMS-009: 0.45 nM
  IL-2 EC50, SEB PBMC, donor BMS-012: 0.66 nM
  IL-2 EC50, SEB PBMC, donor BMS-015: ~0.46 nM
  IL-2 EC50, SEB PBMC, donor BMS-016: 0.29 nM
  IL-2 EC50, SEB PBMC, donor WB10024: ~0.42 nM
  IL-2 EC50, SEB PBMC, donor WB10025: ~0.85 nM
  IL-2 EC50, SEB PBMC, donor WB10026: 0.28 nM
  IL-2 EC50, SEB PBMC, donor WB10027: 0.45 nM
  IL-2 EC50, SEB PBMC, donor WB10137: 0.56 nM
  IL-2 Mean EC50, SEB PBMC, all donors: 0.46 nM

B2: 14B6 (antibody, V domains shown)
VH: EVQLEQSGAEVKKPGESLKISCKGSGYSFTSNWIGWVRQMPGKGLEWMGFIYPGDSDTRYSPSFQGQVTISADKSISTAYLQWSSLKASDIAMYYCARYGDDWYFDLWGRGTLVTVSS
VL: EIVLTQSPATLSLSPGERATLSCRASQSVSSYLAWFQQRPGQAPRLLIYDASNRATGIPARFSGSGSGTDFSLTISSLEPEDFAVYYCQQRGDWPITFGQGTRLEIK
notes: also called 14B6.C5.C8; 14B6.C5
[7]
  Kd: 8.84 nM
  koff: 0.000654 s⁻¹
  kon: 74000 M⁻¹ s⁻¹
Human OX40 on cells [8]
  EC50: 0.18 nM
Cynomolgus OX40 on cells [9]
  EC50: 0.31 nM
Human OX40 on cells [3]
  Proliferation EC50, CD4 T cells + CHO-CD3-CD32A: 0.012 nM
Human OX40 on cells [10]
  EC50: 1 nM
Human OX40 on cells [11]
  IC50: 0.7 nM

Source: patent US20200399385A1 (Bristol-Myers Squibb, published 2020)
